Results from the supplement of paper PMC9732359.
± gives the uncertainty stated by the source.

Test: protein stability index of a GFP-peptide fusion (yeast GPS) (PSI 1-4); higher = more stable; sorted into four equal gates, so the index is relative within each strain
Outline: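 Plasmids isolated from each sorting gate were PCR-amplified and Illumina-sequenced, and barcodes assigned the reads to strains. The gates, four of equal size, were set by GFP/Cherry fluorescence ratio on mid-log cultures in leucine-free medium. These cultures were yeast carrying a pooled library of tiled 17-residue yeast protein peptides fused downstream of GFP on a plasmid that also expresses Cherry. The protein stability index is the sum of every gate's read frequency times its gate number.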

Row | Sequence | protein stability index (doa10∆) | protein stability index (pdr5∆) | protein stability index (san1∆) | protein stability index (ubr1∆)
1 | YEFPIEGIEIYDRKKLP [RPC11] | 3.16 ± 0.14 | 3.01 ± 0.094 | 1.91 ± 0.14 | 3.3 ± 0.17
2 | IRAELLNDRKVLFAAYK [RPB11] | 2.18 ± 0.081 | 2.19 ± 0.063 | 2.45 ± 0.098 | 2.23 ± 0.061
3 | EKCKEINVETVYDIMAL [BRR2] | 2.28 ± 0.059 | 2.44 ± 0.049 | 2.57 ± 0.07 | 2.5 ± 0.046
4 | LFPIVKKHGKTDYFLPK [YJL039C/NUP192] | 2.46 ± 0.2 | 2.66 ± 0.11 | 2.58 ± 0.15 | 2.08 ± 0.062
5 | VSSKCNDIHLRFMRFLA [ECM29] | 2.23 ± 0.083 | 2.38 ± 0.06 | 2.74 ± 0.18 | 2.08 ± 0.08
6 | VKLWEEDPDQEECSGRR [YGL100W/SEH1] | 3.18 ± 0.084 | 3.08 ± 0.081 | 3.37 ± 0.04 | 3.37 ± 0.055
7 | TQATSEDGTSASFQIVE [RPC19] | 2.88 ± 0.073 | 3.18 ± 0.079 | 3.05 ± 0.051 | 3.12 ± 0.068
8 | EELLLKDLEIRKLEISS [GAL11] |  | 2.31 ± 0.11 | 3.18 ± 0.081 | 1.09 ± 0.12
9 | NSLLTIVWRFISENTFP [RPC34] | 1.82 ± 0.059 | 2.05 ± 0.042 | 2.08 ± 0.076 | 2.31 ± 0.045
10 | DITGIRDVSDDVFDTLA [GRR1] | 3.02 ± 0.12 | 3.04 ± 0.07 | 2.95 ± 0.075 | 2.97 ± 0.067
11 | VQGSTLAQLTSKLIPEV [RPS1A] | 2.79 ± 0.061 | 2.96 ± 0.063 | 3.01 ± 0.051 | 2.76 ± 0.045
12 | RPSFQNNRISNANEISA [SWP82] | 2.22 ± 0.043 | 2.29 ± 0.047 | 1.99 ± 0.082 | 2.47 ± 0.054
13 | VLPNTALKTSIQHVGMI [FAS1] | 2.95 ± 0.12 | 2.6 ± 0.16 | 1.93 ± 0.14 | 2.4 ± 0.24
14 | TCAVGVKGKNCVVLGCE [PRE6] |  |  |  | 3.42 ± 0.24
15 | NVFVILMDKCLPKVRIR [DIS3] | 2.96 ± 0.088 | 1.87 ± 0.05 | 1.87 ± 0.07 | 1.65 ± 0.047
16 | TGNFIIPSGNVWNYTFM [PRP8] | 3.05 ± 0.095 | 2.95 ± 0.12 | 2.88 ± 0.077 | 3.18 ± 0.12
17 | IPNLTAKPFQVTKEYFQ [FAS1] | 2.61 ± 0.051 | 2.95 ± 0.049 | 3.04 ± 0.061 | 2.79 ± 0.041
18 | NYLKYLEYWCNPPYSQC [SOH1] | 2.14 ± 0.052 | 2.25 ± 0.048 | 2.18 ± 0.063 | 2.28 ± 0.036
19 | LAALNVWYGLSDGEDGH [SSN2] | 3.19 ± 0.12 | 3.39 ± 0.11 | 3.04 ± 0.067 | 3.12 ± 0.077
20 | QVLVCTATLAWGVNLPA [BRR2] | 1.53 ± 0.11 | 1.91 ± 0.088 | 2.1 ± 0.089 | 2.12 ± 0.059
21 | ENGTHNDEVNEDEEDDN [YCG1] | 3.42 ± 0.1 | 3.23 ± 0.12 | 3.54 ± 0.11 | 3.49 ± 0.14
22 | FLTNELIRLQMEKLDAK [SWI3] | 2.97 ± 0.11 | 2.98 ± 0.085 | 3.14 ± 0.051 | 2.96 ± 0.078
23 | DELSSKELVECHLYSQR [NNF1] | 2.05 ± 0.056 | 2.33 ± 0.052 | 2.13 ± 0.094 | 2 ± 0.04
24 | TIIFIDELDAIGTKRFD [RPT5] | 2.75 ± 0.069 | 2.33 ± 0.045 | 2.5 ± 0.075 | 2.42 ± 0.059
25 | LPTPTPTEMEPDLDTEC [SWI1] | 2.92 ± 0.05 | 3.09 ± 0.05 | 2.77 ± 0.048 | 2.94 ± 0.032
26 | QFLYEKHYKNIPRNSPL [RPC82] | 1.92 ± 0.068 | 1.9 ± 0.056 | 1.68 ± 0.066 | 2.08 ± 0.035

Row | Sequence | protein stability index (doa10∆) | protein stability index (pdr5∆) | protein stability index (san1∆) | protein stability index (ubr1∆)
27 | MYTRLCICSGMLFEMDG [SIN4] | 1.45 ± 0.038 | 1.41 ± 0.038 | 1.48 ± 0.073 | 1.42 ± 0.029
28 | GLSQTEAFGNIKIDAKP [MCD1] | 2.07 ± 0.083 | 2.87 ± 0.15 | 1.77 ± 0.2 | 2.48 ± 0.078
29 | HYMVHEALNLLKFFLVD [LIN1] | 2.19 ± 0.053 | 1.7 ± 0.043 | 1.79 ± 0.081 | 2.11 ± 0.058
30 | TVPNLPTTMVTNQKDTN [ISW2] | 1.29 ± 0.046 | 1.84 ± 0.053 | 1.51 ± 0.1 | 1.75 ± 0.051
31 | QNDILQESFINTMSAWV [FAS2] | 2.14 ± 0.089 | 2.54 ± 0.19 | 2.55 ± 0.074 | 2.28 ± 0.086
32 | TMIKKTTLVTRREELQQ [SMC3] | 2.88 ± 0.13 | 2.94 ± 0.11 | 3.1 ± 0.16 | 2.55 ± 0.18
33 | EDNEMLEDLFSYRNGMA [YJR042W/NUP85] | 2.02 ± 0.082 | 1.89 ± 0.086 | 2.65 ± 0.089 | 1.95 ± 0.079
34 | YPRLQDPSRELNVIIDQ [YCS4] | 3.2 ± 0.076 | 3.09 ± 0.08 | 3.34 ± 0.052 | 3.07 ± 0.082
35 | SLFQLSKLGKNLQTVHF [GRR1] | 2.2 ± 0.047 | 2.22 ± 0.051 | 1.96 ± 0.06 | 2.43 ± 0.038
36 | EFNGFSLYQVDPSGSYF [PRE8] | 2.19 ± 0.057 | 2.05 ± 0.08 | 2.1 ± 0.15 | 2.43 ± 0.077
37 | QITPTVPHSHPSDMVIP [SNF12] | 2.69 ± 0.044 | 2.59 ± 0.045 | 2.63 ± 0.046 | 2.59 ± 0.034
38 | SAQQNLASSFVNGFLNL [RPN1] | 2.73 ± 0.094 | 2.54 ± 0.067 | 3.1 ± 0.059 | 2.75 ± 0.068
39 | TLKNRGLPLGIAEEKMW [YGR119C/NUP57] | 1.8 ± 0.078 | 1.7 ± 0.078 | 1.44 ± 0.29 | 1.89 ± 0.039
40 | EIVDTYQEDIFVSESPS [ISW2] | 2.83 ± 0.093 | 2.8 ± 0.11 | 3.35 ± 0.092 | 2.6 ± 0.07
41 | RQLTSLGSKKELGISLE [SNU114] | 3 ± 0.072 | 3.17 ± 0.079 | 3.14 ± 0.097 | 3.36 ± 0.062
42 | QAQAQAQAQAQAQAQAQ [GAL11] | 2.84 ± 0.032 | 3.1 ± 0.034 | 3.101 ± 0.024 | 3.04 ± 0.033
43 | ISPKGGRRISENGQRDL [RPS19A] |  | 2.81 ± 0.2 | 3.19 ± 0.13 | 2.86 ± 0.11
44 | DLVKPKNPKFSNAFYSV [SMC4] | 2.43 ± 0.062 | 2.42 ± 0.064 | 2.26 ± 0.074 | 2.82 ± 0.067
45 | TDAGVLALKLELLDFLT [YJL039C/NUP192] | 2.84 ± 0.061 | 2.98 ± 0.078 | 2.96 ± 0.052 | 3.02 ± 0.046
46 | PLQSIPEIGNRKINLFY [SWI1] | 1.51 ± 0.07 | 1.48 ± 0.072 | 2.54 ± 0.073 | 1.43 ± 0.064
47 | NHSLQHQNESSAASIPP [RPN4] | 2.94 ± 0.057 | 3 ± 0.058 | 2.83 ± 0.062 | 3.12 ± 0.037
48 | LSPSDQFAPAFLNTPNN [SSN2] | 1.96 ± 0.069 | 2.23 ± 0.1 | 2.06 ± 0.13 | 2.44 ± 0.098
49 | LPSAVDGENDKKEATKP [YLR335W/NUP2] | 3.36 ± 0.082 | 3.29 ± 0.067 | 3.05 ± 0.056 | 3.37 ± 0.059
50 | GSLKLPNCPRPNMSICI [RPL1A] | 2.62 ± 0.082 | 2.67 ± 0.05 | 2.95 ± 0.065 | 2.98 ± 0.05
51 | VNHLLLFAREIAKSQDK [DPB4] | 2.06 ± 0.15 | 2.85 ± 0.16 | 2.76 ± 0.14 | 2.08 ± 0.068
52 | ARIIAAIPNPEDVVAIS [RPS0A] | 1.8 ± 0.071 | 2.14 ± 0.083 | 2.34 ± 0.091 | 2.31 ± 0.083
